Assay results as given in paper PMC10540216, “Activity Guided Azide-methyllysine Photo-trapping for Substrate Profiling of Lysine Demethylases” (Journal of the American Chemical Society, 2023).

B1: CPSF7_HUMAN (protein, UniProt Q8N684 1-471, looked up)
Cleavage and polyadenylation …: MSEGVDLIDIYADEEFNQDPEFNNTDQIDLYDDVLTATSQPSDDRSSSTEPPPPVRQEPSPKPNNKTPAILYTYSGLRNRRAAVYVGSFSWWTTDQQLIQVIRSIGVYDVVELKFAENRANGQSKGYAEVVVASENSVHKLLELLPGKVLNGEKVDVRPATRQNLSQFEAQARKRECVRVPRGGIPPRAHSRDSSDSADGRATPSENLVPSSARVDKPPSVLPYFNRPPSALPLMGLPPPPIPPPPPLSSSFGVPPPPPGIHYQHLMPPPPRLPPHLAVPPPGAIPPALHLNPAFFPPPNATVGPPPDTYMKASAPYNHHGSRDSGPPPSTVSEAEFEDIMKRNRAISSSAISKAVSGASAGDYSDAIETLLTAIAVIKQSRVANDERCRVLISSLKDCLHGIEAKSYSVGASGSSSRKRHRSRERSPSRSRESSRRHRDLLHNEDRHDDYFQERNREHERHRDRERDRHH
B2: SYFA_HUMAN (protein, UniProt Q9Y285 2-508, looked up)
Phenylalanine--tRNA ligase …: ADGQVAELLLRRLEASDGGLDSAELAAELGMEHQAVVGAVKSLQALGEVIEAELRSTKHWELTAEGEEIAREGSHEARVFRSIPPEGLAQSELMRLPSGKVGFSKAMSNKWIRVDKSAADGPRVFRVVDSMEDEVQRRLQLVRGGQAEKLGEKERSELRKRKLLAEVTLKTYWVSKGSAFSTSISKQETELSPEMISSGSWRDRPFKPYNFLAHGVLPDSGHLHPLLKVRSQFRQIFLEMGFTEMPTDNFIESSFWNFDALFQPQQHPARDQHDTFFLRDPAEALQLPMDYVQRVKRTHSQGGYGSQGYKYNWKLDEARKNLLRTHTTSASARALYRLAQKKPFTPVKYFSIDRVFRNETLDATHLAEFHQIEGVVADHGLTLGHLMGVLREFFTKLGITQLRFKPAYNPYTEPSMEVFSYHQGLKKWVEVGNSGVFRPEMLLPMGLPENVSVIAWGLSLERPTMIKYGINNIRELVGHKVNLQMVYDSPLCRLDAEPRPPPTQEAA
B3: SYCM_HUMAN (protein, UniProt Q6PI48 48-645, looked up)
Aspartate--tRNA ligase, …: VVRTNTCGELRSSHLGQEVTLCGWIQYRRQNTFLVLRDFDGLVQVIIPQDESAASVKKILCEAPVESVVQVSGTVISRPAGQENPKMPTGEIEIKVKTAELLNACKKLPFEIKNFVKKTEALRLQYRYLDLRSFQMQYNLRLRSQMVMKMREYLCNLHGFVDIETPTLFKRTPGGAKEFLVPSREPGKFYSLPQSPQQFKQLLMVGGLDRYFQVARCYRDEGSRPDRQPEFTQIDIEMSFVDQTGIQSLIEGLLQYSWPNDKDPVVVPFPTMTFAEVLATYGTDKPDTRFGMKIIDISDVFRNTEIGFLQDALSKPHGTVKAICIPEGAKYLKRKDIESIRNFAADHFNQEILPVFLNANRNWNSPVANFIMESQRLELIRLMETQEEDVVLLTAGEHNKACSLLGKLRLECADLLETRGVVLRDPTLFSFLWVVDFPLFLPKEENPRELESAHHPFTAPHPSDIHLLYTEPKKARSQHYDLVLNGNEIGGGSIRIHNAELQRYILATLLKEDVKMLSHLLQALDYGAPPHGGIALGLDRLICLVTGSPSIRDVIAFPKSFRGHDLMSNTPDSVPPEELKPYHIRVSKPTDSKAERAH
B4: SF3B4_HUMAN (protein, UniProt Q15427 2-424, looked up)
Splicing factor 3B subunit 4: AAGPISERNQDATVYVGGLDEKVSEPLLWELFLQAGPVVNTHMPKDRVTGQHQGYGFVEFLSEEDADYAIKIMNMIKLYGKPIRVNKASAHNKNLDVGANIFIGNLDPEIDEKLLYDTFSAFGVILQTPKIMRDPDTGNSKGYAFINFASFDASDAAIEAMNGQYLCNRPITVSYAFKKDSKGERHGSAAERLLAAQNPLSQADRPHQLFADAPPPPSAPNPVVSSLGSGLPPPGMPPPGSFPPPVPPPGALPPGIPPAMPPPPMPPGAAGHGPPSAGTPGAGHPGHGHSHPHPFPPGGMPHPGMSQMQLAHHGPHGLGHPHAGPPGSGGQPPPRPPPGMPHPGPPPMGMPPRGPPFGSPMGHPGPMPPHGMRGPPPLMPPHGYTGPPRPPPYGYQRGPLPPPRPTPRPPVPPRGPLRGPLPQ
B5: SF3A3_HUMAN (protein, UniProt Q12874 1-501, looked up)
Splicing factor 3A subunit 3: METILEQQRRYHEEKERLMDVMAKEMLTKKSTLRDQINSDHRTRAMQDRYMEVSGNLRDLYDDKDGLRKEELNAISGPNEFAEFYNRLKQIKEFHRKHPNEICVPMSVEFEELLKARENPSEEAQNLVEFTDEEGYGRYLDLHDCYLKYINLKASEKLDYITYLSIFDQLFDIPKERKNAEYKRYLEMLLEYLQDYTDRVKPLQDQNELFGKIQAEFEKKWENGTFPGWPKETSSALTHAGAHLDLSAFSSWEELASLGLDRLKSALLALGLKCGGTLEERAQRLFSTKGKSLESLDTSLFAKNPKSKGTKRDTERNKDIAFLEAQIYEYVEILGEQRHLTHENVQRKQARTGEEREEEEEEQISESESEDEENEIIYNPKNLPLGWDGKPIPYWLYKLHGLNINYNCEICGNYTYRGPKAFQRHFAEWRHAHGMRCLGIPNTAHFANVTQIEDAVSLWAKLKLQKASERWQPDTEEEYEDSSGNVVNKKTYEDLKRQGLL
B6: TCPB_HUMAN (protein, UniProt P78371 2-535, looked up)
T-complex protein 1 subunit …: ASLSLAPVNIFKAGADEERAETARLTSFIGAIAIGDLVKSTLGPKGMDKILLSSGRDASLMVTNDGATILKNIGVDNPAAKVLVDMSRVQDDEVGDGTTSVTVLAAELLREAESLIAKKIHPQTIIAGWREATKAAREALLSSAVDHGSDEVKFRQDLMNIAGTTLSSKLLTHHKDHFTKLAVEAVLRLKGSGNLEAIHIIKKLGGSLADSYLDEGFLLDKKIGVNQPKRIENAKILIANTGMDTDKIKIFGSRVRVDSTAKVAEIEHAEKEKMKEKVERILKHGINCFINRQLIYNYPEQLFGAAGVMAIEHADFAGVERLALVTGGEIASTFDHPELVKLGSCKLIEEVMIGEDKLIHFSGVALGEACTIVLRGATQQILDEAERSLHDALCVLAQTVKDSRTVYGGGCSEMLMAHAVTQLANRTPGKEAVAMESYAKALRMLPTIIADNAGYDSADLVAQLRAAHSEGNTTAGLDMREGTIGDMAILGITESFQVKRQVLLSAAEAAEVILRVDNIIKAAPRKRVPDHHPC
B7: HNRPR_HUMAN (protein, UniProt O43390 2-633, looked up)
Heterogeneous nuclear …: ANQVNGNAVQLKEEEEPMDTSSVTHTEHYKTLIEAGLPQKVAERLDEIFQTGLVAYVDLDERAIDALREFNEEGALSVLQQFKESDLSHVQNKSAFLCGVMKTYRQREKQGSKVQESTKGPDEAKIKALLERTGYTLDVTTGQRKYGGPPPDSVYSGVQPGIGTEVFVGKIPRDLYEDELVPLFEKAGPIWDLRLMMDPLSGQNRGYAFITFCGKEAAQEAVKLCDSYEIRPGKHLGVCISVANNRLFVGSIPKNKTKENILEEFSKVTEGLVDVILYHQPDDKKKNRGFCFLEYEDHKSAAQARRRLMSGKVKVWGNVVTVEWADPVEEPDPEVMAKVKVLFVRNLATTVTEEILEKSFSEFGKLERVKKLKDYAFVHFEDRGAAVKAMDEMNGKEIEGEEIEIVLAKPPDKKRKERQAARQASRSTAYEDYYYHPPPRMPPPIRGRGRGGGRGGYGYPPDYYGYEDYYDDYYGYDYHDYRGGYEDPYYGYDDGYAVRGRGGGRGGRGAPPPPRGRGAPPPRGRAGYSQRGAPLGPPRGSRGGRGGPAQQQRGRGSRGSRGNRGGNVGGKRKADGYNQPDSKRRQTNNQQNWGSQPIAQQPLQQGGDYSGNYGYNNDNQEFYQDTYGQQWK

Test system: KDM4A-I71AzF
Test: CASI: photo-crosslinking with HEK293T cell extracts, StrepTactin enrichment and LC-MS/MS proteomics;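 further: lysates from HEK293T cells pretreated with a KDM4 inhibitor to raise proteome methylation, affinity-purified after ±UV, gel-resolved, trypsin-digested, with exclusive unique peptides per protein averaged per condition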
Assay type: binding, human
Conditions: sheet "Final results but with 0.01"

| Molecule | Fold change (+UV/-UV) |
| --- | --- |
| B1 | 1 |
| B2 | 4 |
| B3 | 1 |
| B4 | 0.75 |
| B5 | 2 |
| B6 | 1 |
| B7 | 2 |
